Experimental data taken from patent US20250320284A1 (AC IMMUNE, published 2025).
Where a chain is given by its changes, count along the chain named.

T1: CARD domain of human ASC (human, UniProt Q9ULZ3 107-195)
T1 construct: biotinylated in BLI; also called hCARD; human CARD
T1 sequence: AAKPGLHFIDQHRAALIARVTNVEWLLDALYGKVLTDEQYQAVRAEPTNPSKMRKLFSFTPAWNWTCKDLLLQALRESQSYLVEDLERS

T2: mouse ASC (mouse, UniProt Q9EPB4 1-193)
T2 construct: recombinant mASC in ELISA and SPR; endogenous ASC of J774.A1 cells in Western blot and immunofluorescence; also called mASC
T2 sequence: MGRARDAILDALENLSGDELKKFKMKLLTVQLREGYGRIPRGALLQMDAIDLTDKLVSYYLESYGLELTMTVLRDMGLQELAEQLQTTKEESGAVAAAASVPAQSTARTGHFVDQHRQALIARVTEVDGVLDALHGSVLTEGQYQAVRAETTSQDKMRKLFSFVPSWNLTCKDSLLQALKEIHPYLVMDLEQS

B1: ACI-8016-2614C3B2-AB1 (antibody, V domains shown)
VH: QVQLQQSDAELVKPGASVKISCKVSGYALTDHSIHWMKQRPEQGLAWIGYMYPGDGSANYNDKFKGKATLTADISSSTAYMQLNSLTSEDSAVYFCTRPYYFGSSYDYFGYWGQGTTLTVSS
VL: DIQMNQSPSSLSASLGDTITITCHASQNINVWLSWYQQKPGNVPKLLIYKASKLHTGVSSNFSGSGSGTGFTLTISSLQPEDIGTYYCQQGQSYPYTFGGGTKLEIK
B2: ACI-8016-2A1B12-AB1 (antibody, V domains shown)
VH: EVQLQQSGAELVRPGSSVKMSCETSGYTFTTYGLTWVKQRPGQGLEWIGYIYVGNGYTEYNEKFKDKATLTSDTSSSIVYMQLSSLTSEDSAIYFCARLGLRRHFDYWGQGTTLTVSS
VL: AIQMTQTTSSLSASLGDRVTISCRASQDISNYLHWYQQKPDGTVKLLIFFTSGLRSGVPSRFSGSGSGTDYSLTISNLEQEDIATYFCQQSILLPWTFGGGTKLEIK
notes: also called 936.2A1B12
B3: ACI-8016-207E8B2-AB1 (antibody, V domains shown)
VH: QVQLQQSGAELAKPGASVKLSCKASGYTFTSYWMHWVKQRPGQGLEWIGYINPSSGYTKCNQKFKDKATLTADKSSSTAYMQLSSLTYEDSAVYYCVFPFDYDGFDYWGQGTTLTVSS
VL: DVLMTQTPLSLPVSLGDQASISCRSSQSIVHSNGNTYLEWYLQKPGQSPKLLIYKVSNRFSGVPDRFSGSGSGTVFTLKISRVEAEDLGVYYCFQDSHFPFTFGSGTKLEIK
B4: ACI-8016-19E6D4-AB1 (antibody, V domains shown)
VH: EVKLVESGGGLVQPGGSLKLSCAASGFTFSDYYMYWVRQNAEKRLEWVAYISSGGDAPFYSDNLKGRFTISRDNAKNTLYLQMSRLQPEDTAMYFCAREGFYYYGLYGMDYWGQGTSVTVSS
VL: DIVLSQSPATLSVTPGDSVSLSCRASQSIGDNLHWYQQKSHESPRLIIKSASQSISGIPSRFSGSGSGTDFTLSINIVETEDFGMYFCQQSDTWPLTFGPGTKLELK
notes: also called 936.19E6D4
B5: ACI-8016-3E6B11-AB1 (antibody, V domains shown)
VH: EVQLQQSGAELVRPGSSVKMSCKTSGYTFTNYGITWVKQRPGQGLEWIGYIYVGNGYTEYNEKFKDKAALTSDTSSSTAYMQLTSLTSDDSTIYFCARIAQGRCFDYWGQGTTLSVSS
VL: DIVLTQSPASSAVSLGQRATISCRASQSVSTSSYSYMHWYQQKPGQPPKLLIKYASTLESGVPARFSGSGSGTDFTLNIHPVEEEDTATYYCQHSWELPYMFGGGTKLEIK
notes: also called 936.3E6B11
B6: ACI-8016-17H1G2-AB1 (antibody, V domains shown)
VH: EVQLQQSGAELVRPGSSVKMSCKTSGFTFTSYGISWVIQRPEQGLEWIGYIYIRNGYTEYNEKFKGKATLTSDTSSNTAYMQLSNLASEDSAIYFCVRIHRRFFDYWGQGTTLTVSS
VL: DIQMTQTTSSLSASLGDRVTISCSASQGISNYLNWFQQKPNGTVRLLIYYTSSLHSGVPSRFSGSGSGTDYSLTISNLEPEDIATYYCQQYDRLPWTFGGGTKLEIK
notes: also called 936.17H1G2
B7: ACI-8016-2602H6F10-AB1 (antibody, V domains shown)
VH: QVQLQQSGAELARPGASVKLSCKASGFSFTSYGISWVKQRTGQGLEWIGQIYLRSSNTYYNEKFKDKATLTADKSSSTVYMELRSLTSEDSAVYFCARYYGSSSDYWGQGTTLTVSS
VL: DIQMNQSPSSLSASLGDTITINCHASQNINVWLSWYQQKPGNIPKVLIYQASNLQTGVPTRFSGSGSGTGFTLTISRLQPEDIATYYCQQGQRYPWTFGGGTKLEIK
B8: ACI-8018-2221B7F1-AB1 (antibody, V domains shown)
VH: EVQLVESGGGLVKPGGSLKLSCAASGFTFSDSYMYWLRQTPEKRLEWVASISDGGRYTYYSDSVKGRFTISRDNVKNNLYLQMTSLRSEDTAIYYCARGLDYWGQGTTLTVSS
VL: DIKMTQSPSSMYASLGERVTITCKASQDINSYLSWFQQKPGKSPKTLIYRANRLVDGVPSRFSGSGSGQDYSLTISSLEYEDMGIYYCLQYAESTWTFGGGTKLEIK
B9: ACI-8016-1112B3D7-AB1 (antibody, V domains shown)
VH: QVQLQQSGAELVRPGTSVKLSCKASGYTFTSYWMHWVKQRPGQGLEWIGGIDPSDSYTKYNQKFKAKATLTADTSSSTAYMQLSSLTSEDSAIFYCAREEASTVVAHWYFDVWGTGTTVTVSS
VL: DIVLTQSPATLSVTPGDSVSLSCRASQSISNNLHWYQQKSHESPRLLIKYTSQSISGIPSRFSGSGSGTDYTLSINSVETEDFGMYFCQQSNNWPYTFGGGTKLEIK
B10: ACI-8016-32B6C7-AB1 chimeric Fab (Fab, V domains shown)
VH: QVQLQQSDAELVKPGASVKISCKISGYTFTDQTIHWMNQRPEQGLEWIGYIYPGDGSAMYNEKFRGKATLTADKSSSTAYMQLNSLTSEDSAVYFCARPLYSYASYYWFAYWGQGTLVTVSA
VL: B1 VL with Q38R, V43I, A51S, K53N, S59P, N61R, G84A, Y96L
notes: Fab
B11: hACI-8016-32B6C7-AB1_H9L3 Fab (Fab, V domains shown)
VH: EVQLVQSGAEVKKPGESLKISCKISGYSFTDQTIHWVHQMPGKGLEWMGYIYPGDGSAMYNEKFQGQVTISADKSISTAYLQWSSLKASDTAMYYCARPLYSYASYYWFAYWGQGTLVTVSS
VL: EIVLTQSPATLSLSPGERATLSCHASQNINVWLSWYQQKPGQAPRLLIYKSSNLHTGIPARFSGSGSGTDFTLTISSLEPEDFAVYYCQQGQSYPLTFGQGTKLEIK
B12: hACI-8016-32B6C7-AB1_H5L4 Fab (Fab, V domains shown)
VH: QVQLVQSGAEVKKPGSSVKVSCKISGYTFTDQTIHWVRQAPGQGLEWMGYIYPGDGSAMYNEKFQGRVTITADKSTSTAYMELSSLRSEDTAVYYCARPLYSYASYYWFAYWGQGTLVTVSS
VL: B11 VL with W32Y
B13: hACI-8016-32B6C7-AB1_H14L3 Fab (Fab, V domains shown)
VH: B12 VH with I24A, G56S
VL: B11 VL
B14: hACI-8016-32B6C7-AB1_H6L4 Fab (Fab, V domains shown)
VH: B12 VH with I24A
VL: B11 VL with W32Y
B15: hACI-8016-32B6C7-AB1_H2L3 Fab (Fab, V domains shown)
VH: B11 VH with S28T
VL: B11 VL
B16: hACI-8016-32B6C7-AB1_H7L4 Fab (Fab, V domains shown)
VH: B12 VH with G56S
VL: B11 VL with W32Y
B17: hACI-8016-32B6C7-AB1_H15L3 Fab (Fab, V domains shown)
VH: B12 VH with I24A, G56A
VL: B11 VL
B18: hACI-8016-32B6C7-AB1_H9L4 Fab (Fab, V domains shown)
VH: B11 VH
VL: B11 VL with W32Y
B19: hACI-8016-32B6C7-AB1_H6L3 Fab (Fab, V domains shown)
VH: B12 VH with I24A
VL: B11 VL
B20: hACI-8016-32B6C7-AB1_H4L3 Fab (Fab, V domains shown)
VH: B12 VH with T28S
VL: B11 VL
B21: hACI-8016-32B6C7-AB1_H13L3 Fab (Fab, V domains shown)
VH: B11 VH with G56S
VL: B11 VL
B22: hACI-8016-32B6C7-AB1_H8L4 Fab (Fab, V domains shown)
VH: B12 VH with G56A
VL: B11 VL with W32Y
B23: hACI-8016-32B6C7-AB1_H13L4 Fab (Fab, V domains shown)
VH: B11 VH with G56S
VL: B11 VL with W32Y

Biological target: T1, CARD domain of human ASC
Experiment: ELISA, coated hCARD

Row | EC50 [pM] | binding result | Binder
1 | 2210 | – | B1
2 | 130 | – | B2
3 | – | no binding | B3
4 | 90 | – | B4
5 | 130 | – | B5
6 | 100 | – | B6
7 | – | no binding | B7

Biological target: T3, human ASC (apoptosis associated speck-like protein containing a caspase-recruitment domain) (human, UniProt Q9ULZ3 1-195)
T3 construct: recombinant hASC in ELISA and SPR; endogenous ASC (cytoplasmic or specks) in Western blot and immunofluorescence; also called hASC; PYCARD
Experiment: ELISA, coated hASC;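 also: antibody binding to plate-coated recombinant human ASC, read as phosphatase substrate absorbance, EC50 from four-parameter variable-slope fit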

T3 sequence (Q9ULZ3 whole entry, the tested form may be a part): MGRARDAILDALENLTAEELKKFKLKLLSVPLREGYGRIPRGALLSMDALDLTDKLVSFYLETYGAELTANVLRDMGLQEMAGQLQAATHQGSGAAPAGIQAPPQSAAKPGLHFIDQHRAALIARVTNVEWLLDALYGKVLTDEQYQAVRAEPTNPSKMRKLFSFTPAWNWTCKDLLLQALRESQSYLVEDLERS

Row | EC50 [pM] | Binder
8 | 1980 | B1
9 | 140 | B8
10 | 170 | B2
11 | 100 | B3
12 | 100 | B4
13 | 150 | B5
14 | 70 | B9
15 | 130 | B6
16 | 11100 | B7

Biological target: T4, PYD domain of human ASC (human, UniProt Q9ULZ3 1-91, limits assumed)
T4 construct: biotinylated in BLI; His/MBP-tagged in the alanine ELISA; also called hPYD; human PYD
Experiment: ELISA, coated hPYD;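 also: monoclonal antibody binding to plate-coated human ASC PYD measured by ELISA, with a phosphatase substrate absorbance read-out and EC50 from a variable slope curve fit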

T4 sequence (Q9ULZ3 1-91 limits assumed): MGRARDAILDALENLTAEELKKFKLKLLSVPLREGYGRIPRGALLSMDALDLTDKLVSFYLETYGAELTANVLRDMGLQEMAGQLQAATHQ

Row | EC50 [pM] | binding result | Binder
17 | 3340 | – | B2
18 | 120 | – | B3
19 | – | no binding | B4
20 | – | no binding | B5
21 | – | no binding | B6
22 | 2520 | – | B7

Biological target: T3, human ASC (apoptosis associated …)
Experiment: SPR, hASC immobilized, Fab in flow;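 also: hASC amine-coupled on a CM5 chip (about 500 RU), Fab analytes measured by single-cycle kinetics in PBS-P+ running buffer, glycine pH 1.7 regeneration between Fabs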

Row | Kd [pM] | koff [s⁻¹] | kon [M⁻¹ s⁻¹] | Binder
23 | 1010 | 2.11e-05 | 20900 | B10
24 | 91 | 8.87e-06 | 99100 | B11
25 | 79 | 6.68e-06 | 84500 | B12
26 | 49 | 4.96e-06 | 101000 | B13
27 | 67 | 5.28e-06 | 79200 | B14
28 | 105 | 8.64e-06 | 82200 | B15
29 | 67 | 5.62e-06 | 84300 | B16
30 | 52 | 4.82e-06 | 103000 | B17
31 | 81 | 7.52e-06 | 92000 | B18
32 | 86 | 7.52e-06 | 87200 | B19
33 | 77 | 8.16e-06 | 108000 | B20
34 | 77 | 8.01e-06 | 105000 | B21
35 | 77 | 7.03e-06 | 94000 | B22
36 | 84 | 7.09e-06 | 84100 | B23

Biological target: T2, mouse ASC
Experiment: ELISA, coated mASC

Row | EC50 [pM] | binding result | Binder
37 | 2670 | – | B1
38 | – | no binding | B8
39 | 1560 | – | B2
40 | 110 | – | B3
41 | – | no binding | B4
42 | 150 | – | B5
43 | – | no binding | B9
44 | 190 | – | B6
45 | 4520 | – | B7
